From article PMC6326742 (Cell, 2018)

Molecular target: the molecule itself
Experiment: SEC-MALS

B1: Ptch1-B (stabilized mouse PTCH1 variant, SBP-tagged, purified) (receptor, UniProt Q61115 1-1291, looked up)
chain: MASAGNAAGALGRQAGGGRRRRTGGPHRAAPDRDYLHRPSYCDAAFALEQISKGKATGRKAPLWLRAKFQRLLFKLGCYIQKNCGKFLVVGLLIFGAFAVGLKAANLETNVEELWVEVGGRVSRELNYTRQKIGEEAMFNPQLMIQTPKEEGANVLTTEALLQHLDSALQASRVHVYMYNRQWKLEHLCYKSGELITETGYMDQIIEYLYPCLIITPLDCFWEGAKLQSGTAYLLGKPPLRWTNFDPLEFLEELKKINYQVDSWEEMLNKAEVGHGYMDRPCLNPADPDCPATAPNKNSTKPLDVALVLNGGCQGLSRKYMHWQEELIVGGTVKNATGKLVSAHALQTMFQLMTPKQMYEHFRGYDYVSHINWNEDRAAAILEAWQRTYVEVVHQSVAPNSTQKVLPFTTTTLDDILKSFSDVSVIRVASGYLLMLAYACLTMLRWDCSKSQGAVGLAGVLLVALSVAAGLGLCSLIGISFNAATTQVLPFLALGVGVDDVFLLAHAFSETGQNKRIPFEDRTGECLKRTGASVALTSISNVTAFFMAALIPIPALRAFSLQAAVVVVFNFAMVLLIFPAILSMDLYRREDRRLDIFCCFTSPCVSRVIQVEPQAYTEPMQSTVQLRTEYDPHTHVYYTTAEPRSEISVQPVTVTQDNLSCQSPESTSSTRDLLSQFSDSSLHCLEPPCTKWTLSSFAEKHYAPFLLKPKAKVVVILLFLGLLGVSLYGTTRVRDGLDLTDIVPRETREYDFIAAQFKYFSFYNMYIVTQKADYPNIQHLLYDLHKSFSNVKYVMLEENKQLPQMWLHYFRDWLQGLQDAFDSDWETGRIMPNNYKNGSDDGVLAYKLLVQTGSRDKPIDISQLTKQRLVDADGIINPSAFYIYLTAWVSNDPVAYAASQANIRPHRPEWVHDKADYMPETRLRIPAAEPIEYAQFPFYLNGLRDTSDFVEAIEKVRVICNNYTSLGLSSYPNGYPFLFWEQYISLRHWLLLSISVVLACTFLVCAVFLLNPWTAGIIVMVLALMTVELFGMMGLIGIKLSAVPVVILIASVGIGVEFTVHVALAFLTAIGDKNHRAMLALEHMFAPVLDGAVSTLLGVLMLAGSEFDFIVRYFFAVLAILTVLGVLNGLVLLPVLLSFFGPCPEVSPANGLNRLPTPSPEPPPSVVRFAVPPGHTNNGSDSSDSEYSSQTTVSGISEELRQYEAQQGAGGPAHQVIVEATENPVFARSTVVHPDSRHQPPLTPRQQPHLDSGSLSPGRQGQQPRRD
stoichiometry N: 2
